From patent publication US9658208B2, “Methods and G proteins for screening and identifying ligands of G protein-coupled receptors” (Fred Hutchinson Cancer Research Center, priority 2011, dated 2017)

System: nine GPCRs that do not bind to Gαs (serotonin 1b, neuropeptide Y1, leukotriene B4, dopamine D4, GNRH, UDP, calcium-sensing, T1R2/T1R3)
Assay: CRE-SEAP reporter gene assay, coupling of chimeric G proteins with a variety of GPCRs
Assay type: cell-based
Details: HEK-293 cells, GPCR ligand 48 hours
Description: The GPCRs examined were those that couple with Gαi/Gαo subunits (serotonin 1b, neuropeptide Y1, leukotriene B4, and dopamine D4), Gαq (GNRH, UDP, and calcium-sensing receptors), and the orphan mammalian sweet taste receptor complex (T1R2 and T1R3) with unknown coupling preference. The Gαs-based chimeric G proteins examined in this example were Gαs-Gαi-5, Gαs-Gαt-13 (SEQ ID NO: 3), Gαs-Gαo-13 (SEQ ID NO: 4), Gαs-Gαi-13 (SEQ ID NO: 5), Gαs-Gαz-6 (SEQ ID NO: 18), Gαs-Gα15-13 (SEQ ID NO: 7), Gαs-Gαk-5 (SEQ ID NO: 2), and Gαs-Gαq-13 (SEQ ID NO: 8). The chimeric G protein constructs were prepared as described herein. For the coupling assay, HEK-293 cells were cotransfected with each of the Gαs-based chimeric G protein constructs of interest together with the CRE-SEAP reporter gene construct and a cDNA encoding the GPCR to be tested. The transfected cells were cultured in the presence or absence of a GPCR ligand and then assayed for SEAP activity.
Chimeric G protein cloning: An insert containing rat Gαs cDNA was cut out using the restriction enzymes SaII and HinDIII, and ligated into pcDNA3.1(−) cut with XhoI and HinDIII. The chimeric G proteins with the desired C-terminal amino acid substitutions from the Gαi, Gαt, Gαo, Gαz, Gα15, Gαk, and Gαq were prepared by PCR using Gαs as a template. More specifically, Gαs was PCR amplified between an internal EcoRI site and the stop codon, with a 3′ HinDIII placed immediately after the stop codon. A different 3′ oligonucleotide was used for each Gαs chimera and contained a 39 bp sequence that encoded the substituted amino acids at the C-terminus selected from the donor Gα subunit.
GPCR cloning: Mouse 5-HT1B, mouse dopamine D4, human GNRH, and human neuropeptide Y1 receptors were cloned by PCR from cDNA templates (ATCC) and ligated into pcDNA 3.1(−) (Invitrogen) for expression in mammalian cells. […]
Following transfection, the cells were maintained for 48 hours in 200 ul serum free media containing GPCR ligand. […] Fluorescence was then measured using a CytoFluor 4000 multi well plate reader (Applied Biosystems).

B1: Gαs-Gαt-13: Gαs-based chimeric G protein, final 13 C-terminal amino acids substituted with those of Gαt (protein)
chain: MGCLGNSKTEDQRNEEKAQREANKKIEKQLQKDKQVYRATHRLLLLGAGESGKSTIVKQMRILHVNGFNGEGGEEDVPDYASNSDGEKATKVQDIKNNLKEAIETIVAAMSNLVPPVELANPENQFRVDYILSVMNVPNFDFPPEFYEHAKALWEDEGVRACYERSNEYQLIDCAQYFLDKIDVIKQADYVPSDQDLLRCRVLTSGIFETKFQVDKVNFHMFDVGGQRDERRKWIQCFNDVTAIIFVVASSSYNMVIREDNQTNRLQEALNLFKSIWNNRWLRTISVILFLNKQDLLAEKVLAGKSKIEDYFPEFARYTTPEDATPEPGEDPRVTRAKYFIRDEFLRISTASGDGRHYCYPHFTCAVDTENIRRVFNDCRDIIIKENLKDCGLF
modifications: Chimeric protein
notes: Gαs-based chimeric G protein, final 13 C-terminal amino acids substituted with those of Gαt
- GPCRs tested that coupled to the chimera: All but one
